Results: patent publication US20080254026A1 (published 2008)
Values belong to the binder of their own block, whether it stands above or below them.

Columns and labels:
[1] = target: T1, CD40 extracellular Domain 4 GST fusion protein (human, UniProt P25942 145-187); test: western blot of CD40 domain GST fusion proteins
T1 construct: Expressed in insect cells with a GP67 secretion signal; not shown: glutathione S-transferase (GST) fusion partner
T1 chain: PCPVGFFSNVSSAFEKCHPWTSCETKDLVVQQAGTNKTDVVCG
Experimental: (§1) To map the antigenic region on CD40, the four extracellular domains of CD40 were cloned and expressed in insect cells as GST fusion proteins. The secretion of the four domains was ensured with a GP67 secretion signal. Insect cell supernatant was analyzed by SDS-PAGE and western blot analysis to identify the domain containing the epitope.

[2] = target: T2, CD40 extracellular Domain 1 GST fusion protein (human); test: western blot of CD40 domain GST fusion proteins
T2 construct: Expressed in insect cells with a GP67 secretion signal; not shown: glutathione S-transferase (GST) fusion partner
T2 chain: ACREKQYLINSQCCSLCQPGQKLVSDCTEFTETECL
Experimental: as §1

[3] = target: T3, CD40 extracellular Domain 3 GST fusion protein (human, UniProt P25942 104-144); test: western blot of CD40 domain GST fusion proteins
T3 construct: Expressed in insect cells with a GP67 secretion signal; not shown: glutathione S-transferase (GST) fusion partner
T3 chain: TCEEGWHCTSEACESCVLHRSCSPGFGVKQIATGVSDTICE
Experimental: as §1

[4] = target: T4, CD40 extracellular Domain 2 GST fusion protein (human, UniProt P25942 61-104); test: western blot of CD40 Domain 2, reduced
T4 construct: Expressed in insect cells with a GP67 secretion signal; not shown: glutathione S-transferase (GST) fusion partner
T4 chain: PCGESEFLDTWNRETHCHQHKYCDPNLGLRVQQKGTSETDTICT

[5] = target: T5, CD40 Domain 2 10-mer peptide HKYCDPNLGL (spot 20) (human); test: SPOTs membrane of 10-mer peptides, spot 20 listed as recognised
T5 construct: Synthetic 10-mer on a SPOTs membrane (Sigma)
T5 peptide: HKYCDPNLGL
Description: (§2) SPOTs membranes (Sigma) containing thirty-five 10 mer peptides with a 1-amino-acid offset were generated.

[6] = target: T6, CD40 Domain 2 10-mer peptide KYCDPNLGLR (spot 21) (human); test: SPOTs membrane of 10-mer peptides, spot 21 listed as recognised
T6 construct: Synthetic 10-mer on a SPOTs membrane (Sigma)
T6 peptide: KYCDPNLGLR
Description: as §2

[7] = target: T7, CD40 Domain 2 10-mer peptide YCDPNLGLRV (spot 22) (human); test: SPOTs membrane of 10-mer peptides, spot 22 listed as recognised
T7 construct: Synthetic 10-mer on a SPOTs membrane (Sigma)
T7 peptide: YCDPNLGLRV
Description: as §2

[8] = target: T8, Recombinant soluble CD40-his (human, UniProt P25942 21-193); test: Biacore
T8 construct: Analyte in the Biacore experiments; not shown: his tag
T8 sequence (P25942 21-193 limits assumed): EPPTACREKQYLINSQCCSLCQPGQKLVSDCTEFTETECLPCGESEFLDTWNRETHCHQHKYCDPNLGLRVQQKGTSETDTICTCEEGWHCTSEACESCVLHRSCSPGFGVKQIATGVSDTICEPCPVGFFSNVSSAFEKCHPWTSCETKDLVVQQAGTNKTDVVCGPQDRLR
Experimental: (§3) Protein A was immobilized onto CM5 biosensor chips via amine coupling. Human anti-CD40 monoclonal antibodies, at 1.5 μg/ml, were captured onto the modified biosensor surface for 1.5 minutes at 10 μl/min. Recombinant soluble CD40-his was flowed over the biosensor surface at varying concentrations. Antibody and antigen were diluted in 0.01 M HEPES pH 7.4, 0.15 M NaCl, 3 mM EDTA, 0.005% Surfactant P20 (HBS-EP). Kinetic and affinity constants were determined using the Biaevaluation software with a 1:1 interaction model/global fit.

[9] = target: T9, CD40 extracellular Domain 2 GST fusion protein (human, UniProt P25942 61-104); test: Western blot of GST domain fusions
T9 construct: Expressed in insect cells with a GP67 secretion signal; not shown: GST fusion partner
T9 chain: T4 chain

[10] = target: T10, CD40 extracellular Domain 3 GST fusion protein (human, UniProt P25942 104-144); test: SDS-PAGE and Western blot of insect cell supernatant with GST domain fusions
T10 construct: not shown: GST fusion partner
T10 chain: T3 chain
Experimental: as §1

[11] = target: T11, CD40 extracellular Domain 4 GST fusion protein (human, UniProt P25942 145-187); test: as above
T11 construct: not shown: GST fusion partner
T11 chain: T1 chain
Experimental: as §1

[12] = target: T12, CD40 extracellular Domain 1 GST fusion protein (human); test: as above
T12 construct: Expressed in insect cells with a GP67 secretion signal; not shown: GST fusion partner
T12 chain: T2 chain
Experimental: as §1

[13] = target: T13, SPOTs peptide, spot 21 (KYCDPNLGLR) (human); test: SPOTs peptide membrane, stripped and reprobed
T13 peptide: KYCDPNLGLR
Description: as §2

[14] = target: T14, SPOTs peptide, spot 20 (HKYCDPNLGL) (human); test: SPOTs peptide membrane, stripped and reprobed
T14 peptide: HKYCDPNLGL
Description: as §2

[15] = target: T15, SPOTs peptide, spot 22 (YCDPNLGLRV) (human); test: SPOTs peptide membrane, stripped and reprobed
T15 peptide: YCDPNLGLRV
Description: as §2

[16] = target: T8, Recombinant soluble CD40-his; test: Biacore, antibody captured on protein A CM5 chip, CD40-his as analyte, 1:1 model/global fit
Experimental: as §3

[17] = target: human CD40 on normal human B cells (PBMC or purified B cells) (human, UniProt P25942 20-277); test: cell-based or functional assay
Chain of human CD40 on normal human B cells (PBMC or purified B cells) (P25942 20-277): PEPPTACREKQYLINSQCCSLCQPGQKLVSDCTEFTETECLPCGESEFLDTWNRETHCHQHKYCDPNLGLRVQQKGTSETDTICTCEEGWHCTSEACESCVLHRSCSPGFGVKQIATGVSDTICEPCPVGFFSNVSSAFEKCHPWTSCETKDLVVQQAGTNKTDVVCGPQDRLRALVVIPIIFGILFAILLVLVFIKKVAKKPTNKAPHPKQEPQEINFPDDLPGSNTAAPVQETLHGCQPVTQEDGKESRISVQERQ

[18] = target: T16, SPOTs peptide, spot 18 (HQHKYCDPNL) (human); test: SPOTs peptide membrane, antibody at 10 µg/ml
T16 peptide: HQHKYCDPNL
Description: as §2

[19] = target: T13, SPOTs peptide, spot 21 (KYCDPNLGLR); test: SPOTs peptide membrane, antibody at 10 µg/ml
Description: as §2

[20] = target: T14, SPOTs peptide, spot 20 (HKYCDPNLGL); test: SPOTs peptide membrane, antibody at 10 µg/ml
Description: as §2

[21] = target: T17, SPOTs peptide, spot 19 (QHKYCDPNLG) (human); test: SPOTs peptide membrane, antibody at 10 µg/ml
T17 peptide: QHKYCDPNLG
Description: as §2

[22] = target: T15, SPOTs peptide, spot 22 (YCDPNLGLRV); test: SPOTs peptide membrane, antibody at 10 µg/ml
Description: as §2

[23] = target: human CD40 antigen expressed on the surface of cells (human, UniProt P25942 20-277); test: cell-based or functional assay
Chain of human CD40 antigen expressed on the surface of cells (P25942 20-277): as above

[24] = target: T18, CD40 Domain 2 SPOTs peptide, spot 21 (KYCDPNLGLR) (human); test: SPOTs membrane of 10mer peptides of CD40 Domain 2; spot 21 listed among the results
T18 construct: 10mer synthesized on a SPOTs membrane; also called Spot Number 21
T18 peptide: KYCDPNLGLR
Description: as §2

[25] = target: T19, CD40 Domain 2 SPOTs peptide, spot 19 (QHKYCDPNLG) (human); test: SPOTs membrane of 10mer peptides of CD40 Domain 2; spot 19 listed among the results
T19 construct: 10mer synthesized on a SPOTs membrane; also called Spot Number 19
T19 peptide: QHKYCDPNLG
Description: as §2

[26] = target: T20, CD40 Domain 2 SPOTs peptide, spot 20 (HKYCDPNLGL) (human); test: SPOTs membrane of 10mer peptides of CD40 Domain 2; spot 20 listed among the results
T20 construct: 10mer synthesized on a SPOTs membrane; also called Spot Number 20
T20 peptide: HKYCDPNLGL
Description: as §2

[27] = target: T21, CD40 Domain 2 SPOTs peptide, spot 18 (HQHKYCDPNL) (human); test: SPOTs membrane of 10mer peptides of CD40 Domain 2; spot 18 listed among the results
T21 construct: 10mer synthesized on a SPOTs membrane; also called Spot Number 18
T21 peptide: HQHKYCDPNL
Description: as §2

[28] = target: T4, CD40 extracellular Domain 2 GST fusion …; test: western blot of CD40 domain GST fusion proteins (Domain 2)
Experimental: as §1

[29] = target: T22, CD40 Domain 2 SPOTs peptide, spot 22 (YCDPNLGLRV) (human); test: SPOTs membrane of 10mer peptides of CD40 Domain 2; spot 22 listed among the results
T22 construct: 10mer synthesized on a SPOTs membrane; also called Spot Number 22
T22 peptide: YCDPNLGLRV
Description: as §2

B2: monoclonal antibody CHIR-5.9 (antibody, human IgG1, kappa)
light: AIVMTQPPLSSPVTLGQPASISCRSSQSLVHSDGNTYLNWLQQRPGQPPRLLIYKFFRRLSGVPDRFSGSGAGTDFTLKISRVEAEDVGVYYCMQVTQFPHTFGQGTRLEIKRTVAAPSVFIFPPSDEQLKSGTASVVCLLNNFYPREAKVQWKVDNALQSGNSQESVTEQDSKDSTYSLSSTLTLSKADYEKHKVYACEVTHQGLSSPVTKSFNRGEC
heavy: not shown
notes: Fully human IgG1 kappa anti-CD40 antibody; also called mAb CHIR-5.9
binding result [5]: binds
binding result [6]: binds
binding result [7]: binds

B3: monoclonal antibody CHIR-5.9 (antibody, human IgG1, kappa)
light: B2 light
heavy: not shown
notes: also called mAb 5.9
Kd [8]: 12 nM
binding result [9]: binds
binding result [10]: no binding
binding result [11]: no binding
binding result [12]: no binding
binding result [13]: binds
binding result [14]: binds
binding result [15]: binds
Kd [16]: 12.2 nM

B6: monoclonal antibody CHIR-12.12 (antibody, human IgG1, kappa)
heavy: not shown
light: DIVMTQSPLSLTVTPGEPASISCRSSQSLLYSNGYNYLDWYLQKPGQSPQVLISLGSNRASGVPDRFSGSGSGTDFTLKISRVEAEDVGVYYCMQARQTPFTFGPGTKVDIRRTVAAPSVFIFPPSDEQLKSGTASVVCLLNNFYPREAKVQWKVDNALQSGNSQESVTEQDSKDSTYSLSSTLTLSKADYEKHKVYACEVTHQGLSSPVTKSFNRGEC
notes: Fully human IgG1 kappa anti-CD40 antibody; Leader residues (1-19 heavy, 1-20 light) left out as stated
binding result [24]: binds
binding result [25]: binds
binding result [26]: binds
binding result [1]: no binding
binding result [2]: no binding
binding result [3]: no binding
binding result [27]: binds
binding result [28]: binds
binding result [29]: binds

The remaining lines, values ahead:

binding result [1]: no binding
binding result [2]: no binding
binding result [3]: no binding
binding result [4]: binds
B1: monoclonal antibody CHIR-5.9 (antibody, human IgG1, kappa)
heavy: not shown
light: B2 light
notes: Fully human IgG1 kappa anti-CD40 antibody; Leader residues (1-19 heavy, 1-20 light) left out as stated; also called mAb CHIR-5.9; CHIR-5.9/5.11

IC50(nM) for inhibition of CD40L-induced PBMC proliferation; PBMC-025 Donor#1 [17]: 24.2 nM
IC50(nM) for inhibition of CD40L-induced PBMC proliferation; PBMC-025 Donor#2 [17]: 66 nM
IC50(nM) for inhibition of CD40L-induced PBMC proliferation; PBMC-026 Donor#1 [17]: 45 nM
IC50(nM) for inhibition of CD40L-induced PBMC proliferation; PBMC-026 Donor#2 [17]: 84 nM
IC50(nM) for inhibition of CD40L-induced PBMC proliferation; PBMC-028 Donor#1 [17]: 30.1 nM
IC50(nM) for inhibition of CD40L-induced PBMC proliferation; PBMC-028 Donor#2 [17]: 34.7 nM
IC50(nM) for inhibition of CD40L-induced PBMC proliferation; PBMC-029 Donor#1 [17]: 28.1 nM
IC50(nM) for inhibition of CD40L-induced PBMC proliferation; PBMC-029 Donor#2 [17]: 55.4 nM
IC50(nM) for inhibition of CD40L-induced PBMC proliferation; PBMC-030 Donor#1 [17]: 35.5 nM
IC50(nM) for inhibition of CD40L-induced PBMC proliferation; PBMC-030 Donor#2 [17]: 103 nM
IC50(nM) for inhibition of CD40L-induced PBMC proliferation; PBMC-032 Donor#1 [17]: 40.4 nM
average IC50(nM) for inhibition of CD40L-induced PBMC proliferation [17]: 49.6 nM
B4: monoclonal antibody CHIR-12.12 (antibody, human IgG1, kappa)
heavy: not shown
light: B6 light

Kd [8]: 0.5 nM
binding result [18]: binds
binding result [19]: binds
binding result [20]: binds
binding result [21]: binds
binding result [22]: binds
binding result [9]: binds
binding result [10]: no binding
binding result [11]: no binding
binding result [12]: no binding
IC50: antibody concentration to inhibit 50% of CD-40 ligand-induced lymphocyte proliferation, average of 6 donors [23]: 0.047 nM
Kd [16]: 0.51 nM
B5: monoclonal antibody CHIR-12.12 (antibody, human IgG1, kappa)
light: B6 light
heavy: not shown
